# The supplement of paper PMC10065799, “High-throughput profiling of sequence recognition by tyrosine kinases and SH2 domains using bacterial peptide display” (eLife, 2023)
# Target: FGFR1 (UniProt P11362)
# Assay: phosphorylation enrichment, bacterial display (enrichment ratio); higher = better substrate or ligand; peptides without Tyr show the background
# 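Note: 11-residue human phosphosite peptides and single-mutation variants displayed on the E. coli surface, counted by deep sequencing, each peptide's frequency after selection divided by its frequency in the unselected input library; frequency after pTyr selection over input frequency; kinase dosed for 20-30% of maximal phosphorylation in three min.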
# Sequence of FGFR1 (P11362 whole entry, looked up): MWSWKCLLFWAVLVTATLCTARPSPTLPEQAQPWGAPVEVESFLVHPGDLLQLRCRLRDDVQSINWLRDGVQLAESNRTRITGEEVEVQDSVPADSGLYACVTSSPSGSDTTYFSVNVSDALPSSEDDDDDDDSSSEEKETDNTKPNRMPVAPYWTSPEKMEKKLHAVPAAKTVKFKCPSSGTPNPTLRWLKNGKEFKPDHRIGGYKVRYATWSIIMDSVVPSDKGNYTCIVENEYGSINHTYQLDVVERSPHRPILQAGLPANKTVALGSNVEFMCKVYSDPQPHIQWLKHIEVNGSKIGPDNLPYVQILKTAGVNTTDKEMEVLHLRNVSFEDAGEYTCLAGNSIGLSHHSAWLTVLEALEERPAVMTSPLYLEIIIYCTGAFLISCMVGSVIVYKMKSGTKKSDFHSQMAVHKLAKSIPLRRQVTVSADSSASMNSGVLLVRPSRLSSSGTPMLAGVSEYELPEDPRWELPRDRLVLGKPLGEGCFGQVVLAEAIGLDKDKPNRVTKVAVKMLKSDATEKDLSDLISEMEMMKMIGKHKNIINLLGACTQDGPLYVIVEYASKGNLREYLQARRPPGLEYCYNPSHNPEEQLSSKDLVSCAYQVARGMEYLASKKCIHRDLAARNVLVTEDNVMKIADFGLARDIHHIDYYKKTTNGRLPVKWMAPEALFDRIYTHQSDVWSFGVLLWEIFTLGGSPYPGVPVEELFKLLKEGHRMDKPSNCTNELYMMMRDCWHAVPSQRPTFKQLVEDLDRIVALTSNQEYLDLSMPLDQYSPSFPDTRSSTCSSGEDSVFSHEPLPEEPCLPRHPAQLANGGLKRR
row,Sequence,phosphorylation enrichment
1,GQKVAYGGTGD [ALDH3A1_Y305],0.354
2,LARDIYKNDYY [ROS1_Y2110],3.15
3,FDAHIYEGRVI [PRKCD_Y64],0.546
4,MGHVNYGAYIN [GLB1_Y485_R482H],0.384
5,CTTIHYNCMCN [TP53_Y234_Y236C],0.417
6,DAASNYARGHY [TUBA3E_Y103],0.495
7,ILGRTYYVNHE [NEDD4_Y627],0.485
8,QRRFLYFFSFL [PTEN_Y176_V175L_YF],0.978

# Tested on: c-Abl (mouse)
# Assay: as above
row,Sequence,phosphorylation enrichment
1,GQKVAYGGTGD [ALDH3A1_Y305],0.569
2,LARDIYKNDYY [ROS1_Y2110],0.462
3,FDAHIYEGRVI [PRKCD_Y64],0.636
4,MGHVNYGAYIN [GLB1_Y485_R482H],0.571
5,CTTIHYNCMCN [TP53_Y234_Y236C],0.689
6,DAASNYARGHY [TUBA3E_Y103],0.533
7,ILGRTYYVNHE [NEDD4_Y627],0.725
8,QRRFLYFFSFL [PTEN_Y176_V175L_YF],1.09

# Tested on: AncSZ
# Assay: as above
row,Sequence,phosphorylation enrichment
1,GQKVAYGGTGD [ALDH3A1_Y305],0.582
2,LARDIYKNDYY [ROS1_Y2110],1.1
3,FDAHIYEGRVI [PRKCD_Y64],0.929
4,MGHVNYGAYIN [GLB1_Y485_R482H],0.602
5,CTTIHYNCMCN [TP53_Y234_Y236C],1.06
6,DAASNYARGHY [TUBA3E_Y103],0.522
7,ILGRTYYVNHE [NEDD4_Y627],0.928
8,QRRFLYFFSFL [PTEN_Y176_V175L_YF],1.61

# Target: Jak2 (UniProt O60674)
# Assay: as above
# Sequence of Jak2 (O60674 whole entry, looked up): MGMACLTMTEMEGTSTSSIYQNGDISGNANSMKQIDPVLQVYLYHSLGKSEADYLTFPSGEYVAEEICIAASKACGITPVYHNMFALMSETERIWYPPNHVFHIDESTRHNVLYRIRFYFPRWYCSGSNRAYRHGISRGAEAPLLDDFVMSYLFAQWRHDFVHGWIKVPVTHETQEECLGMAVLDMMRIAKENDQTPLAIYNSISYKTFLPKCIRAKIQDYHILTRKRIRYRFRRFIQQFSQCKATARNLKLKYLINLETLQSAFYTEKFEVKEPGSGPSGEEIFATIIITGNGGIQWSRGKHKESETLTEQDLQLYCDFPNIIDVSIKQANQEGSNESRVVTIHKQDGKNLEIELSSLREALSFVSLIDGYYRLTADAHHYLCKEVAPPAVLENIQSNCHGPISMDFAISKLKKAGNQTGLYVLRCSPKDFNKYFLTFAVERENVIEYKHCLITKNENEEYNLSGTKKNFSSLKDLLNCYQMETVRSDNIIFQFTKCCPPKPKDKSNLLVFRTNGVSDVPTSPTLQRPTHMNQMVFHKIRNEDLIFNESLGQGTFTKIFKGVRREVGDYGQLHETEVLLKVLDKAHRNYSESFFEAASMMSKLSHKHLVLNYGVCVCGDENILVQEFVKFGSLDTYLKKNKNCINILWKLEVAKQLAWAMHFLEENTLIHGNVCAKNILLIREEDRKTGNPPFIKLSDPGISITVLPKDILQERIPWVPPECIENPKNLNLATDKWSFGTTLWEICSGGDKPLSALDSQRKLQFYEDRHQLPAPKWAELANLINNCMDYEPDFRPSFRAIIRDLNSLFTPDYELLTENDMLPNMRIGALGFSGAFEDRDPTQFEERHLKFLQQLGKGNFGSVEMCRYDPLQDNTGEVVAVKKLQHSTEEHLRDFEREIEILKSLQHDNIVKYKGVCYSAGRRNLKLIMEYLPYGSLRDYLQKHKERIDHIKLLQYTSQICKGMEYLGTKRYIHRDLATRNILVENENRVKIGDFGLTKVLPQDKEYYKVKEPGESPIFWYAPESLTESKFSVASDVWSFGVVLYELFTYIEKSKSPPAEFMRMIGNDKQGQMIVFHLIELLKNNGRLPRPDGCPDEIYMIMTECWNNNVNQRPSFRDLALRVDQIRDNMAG
row,Sequence,phosphorylation enrichment
1,GQKVAYGGTGD [ALDH3A1_Y305],0.417
2,LARDIYKNDYY [ROS1_Y2110],0.752
3,FDAHIYEGRVI [PRKCD_Y64],0.639
4,MGHVNYGAYIN [GLB1_Y485_R482H],0.672
5,CTTIHYNCMCN [TP53_Y234_Y236C],0.885
6,DAASNYARGHY [TUBA3E_Y103],0.428
7,ILGRTYYVNHE [NEDD4_Y627],0.705
8,QRRFLYFFSFL [PTEN_Y176_V175L_YF],1.5

# Target: Fyn (UniProt P06241)
# Assay: as above
# Sequence of Fyn (P06241 whole entry, looked up): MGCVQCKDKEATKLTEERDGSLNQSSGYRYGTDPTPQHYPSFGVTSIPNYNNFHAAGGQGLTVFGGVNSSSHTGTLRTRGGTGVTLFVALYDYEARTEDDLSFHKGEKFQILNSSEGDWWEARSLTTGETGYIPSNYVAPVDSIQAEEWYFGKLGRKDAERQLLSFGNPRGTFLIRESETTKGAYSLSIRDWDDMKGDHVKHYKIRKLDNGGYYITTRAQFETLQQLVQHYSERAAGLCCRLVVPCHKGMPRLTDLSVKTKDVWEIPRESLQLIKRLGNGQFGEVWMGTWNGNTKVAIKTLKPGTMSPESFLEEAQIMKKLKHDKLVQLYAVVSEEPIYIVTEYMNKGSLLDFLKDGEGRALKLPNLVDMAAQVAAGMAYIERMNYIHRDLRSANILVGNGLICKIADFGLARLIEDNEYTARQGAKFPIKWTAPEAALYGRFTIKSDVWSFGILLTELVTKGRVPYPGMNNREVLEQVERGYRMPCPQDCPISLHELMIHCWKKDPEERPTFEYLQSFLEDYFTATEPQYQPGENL
row,Sequence,phosphorylation enrichment
1,GQKVAYGGTGD [ALDH3A1_Y305],0.349
2,LARDIYKNDYY [ROS1_Y2110],0.854
3,FDAHIYEGRVI [PRKCD_Y64],1.68
4,MGHVNYGAYIN [GLB1_Y485_R482H],0.521
5,CTTIHYNCMCN [TP53_Y234_Y236C],0.45
6,DAASNYARGHY [TUBA3E_Y103],0.353
7,ILGRTYYVNHE [NEDD4_Y627],0.368
8,QRRFLYFFSFL [PTEN_Y176_V175L_YF],0.795

# Target: Hck (UniProt P08631)
# Assay: as above
# Sequence of Hck (P08631 whole entry, looked up): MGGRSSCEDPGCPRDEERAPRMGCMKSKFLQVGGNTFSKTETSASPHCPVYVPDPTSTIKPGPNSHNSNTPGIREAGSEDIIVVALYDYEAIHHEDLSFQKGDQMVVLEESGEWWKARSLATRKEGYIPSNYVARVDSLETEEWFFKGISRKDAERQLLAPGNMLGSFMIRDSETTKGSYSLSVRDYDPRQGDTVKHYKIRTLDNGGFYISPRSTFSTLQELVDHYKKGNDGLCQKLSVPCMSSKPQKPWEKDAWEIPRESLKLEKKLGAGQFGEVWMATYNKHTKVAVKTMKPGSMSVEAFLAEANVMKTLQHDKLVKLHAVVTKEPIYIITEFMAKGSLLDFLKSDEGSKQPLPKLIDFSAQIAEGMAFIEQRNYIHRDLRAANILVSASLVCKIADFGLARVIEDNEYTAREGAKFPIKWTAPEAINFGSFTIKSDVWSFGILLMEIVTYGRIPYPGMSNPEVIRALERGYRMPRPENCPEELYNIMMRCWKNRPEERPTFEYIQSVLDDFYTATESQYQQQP
row,Sequence,phosphorylation enrichment
1,GQKVAYGGTGD [ALDH3A1_Y305],0.387
2,LARDIYKNDYY [ROS1_Y2110],0.712
3,FDAHIYEGRVI [PRKCD_Y64],4.25
4,MGHVNYGAYIN [GLB1_Y485_R482H],0.471
5,CTTIHYNCMCN [TP53_Y234_Y236C],0.475
6,DAASNYARGHY [TUBA3E_Y103],0.475
7,ILGRTYYVNHE [NEDD4_Y627],0.632
8,QRRFLYFFSFL [PTEN_Y176_V175L_YF],0.68

# Target: Fes (UniProt P07332)
# Assay: as above
# Sequence of Fes (P07332 whole entry, looked up): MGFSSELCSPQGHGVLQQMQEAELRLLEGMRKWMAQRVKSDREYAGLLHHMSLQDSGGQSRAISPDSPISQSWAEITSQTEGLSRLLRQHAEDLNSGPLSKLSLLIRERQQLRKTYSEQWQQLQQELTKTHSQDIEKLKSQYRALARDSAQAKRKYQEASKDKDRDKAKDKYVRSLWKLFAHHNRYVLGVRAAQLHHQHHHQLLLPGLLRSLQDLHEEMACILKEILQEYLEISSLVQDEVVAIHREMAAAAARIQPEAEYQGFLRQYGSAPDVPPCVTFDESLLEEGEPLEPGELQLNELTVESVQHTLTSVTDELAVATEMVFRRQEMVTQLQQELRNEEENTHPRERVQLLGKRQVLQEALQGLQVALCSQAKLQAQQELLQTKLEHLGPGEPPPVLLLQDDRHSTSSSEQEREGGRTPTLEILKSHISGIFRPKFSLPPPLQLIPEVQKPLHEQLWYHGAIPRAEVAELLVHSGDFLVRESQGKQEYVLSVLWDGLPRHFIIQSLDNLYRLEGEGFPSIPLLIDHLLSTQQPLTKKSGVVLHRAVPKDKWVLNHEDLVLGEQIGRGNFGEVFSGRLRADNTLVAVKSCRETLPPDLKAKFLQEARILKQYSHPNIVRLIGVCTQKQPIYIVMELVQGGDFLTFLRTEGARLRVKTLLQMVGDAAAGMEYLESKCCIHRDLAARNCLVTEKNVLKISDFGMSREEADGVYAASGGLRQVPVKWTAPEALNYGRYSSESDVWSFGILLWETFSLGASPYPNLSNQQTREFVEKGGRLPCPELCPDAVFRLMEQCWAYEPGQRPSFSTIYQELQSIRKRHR
row,Sequence,phosphorylation enrichment
1,GQKVAYGGTGD [ALDH3A1_Y305],0.558
2,LARDIYKNDYY [ROS1_Y2110],0.828
3,FDAHIYEGRVI [PRKCD_Y64],0.91
4,MGHVNYGAYIN [GLB1_Y485_R482H],0.661
5,CTTIHYNCMCN [TP53_Y234_Y236C],1.08
6,DAASNYARGHY [TUBA3E_Y103],0.519
7,ILGRTYYVNHE [NEDD4_Y627],0.941
8,QRRFLYFFSFL [PTEN_Y176_V175L_YF],1.85

# Target: MERTK (UniProt Q12866)
# Assay: as above
# Sequence of MERTK (Q12866 whole entry, looked up): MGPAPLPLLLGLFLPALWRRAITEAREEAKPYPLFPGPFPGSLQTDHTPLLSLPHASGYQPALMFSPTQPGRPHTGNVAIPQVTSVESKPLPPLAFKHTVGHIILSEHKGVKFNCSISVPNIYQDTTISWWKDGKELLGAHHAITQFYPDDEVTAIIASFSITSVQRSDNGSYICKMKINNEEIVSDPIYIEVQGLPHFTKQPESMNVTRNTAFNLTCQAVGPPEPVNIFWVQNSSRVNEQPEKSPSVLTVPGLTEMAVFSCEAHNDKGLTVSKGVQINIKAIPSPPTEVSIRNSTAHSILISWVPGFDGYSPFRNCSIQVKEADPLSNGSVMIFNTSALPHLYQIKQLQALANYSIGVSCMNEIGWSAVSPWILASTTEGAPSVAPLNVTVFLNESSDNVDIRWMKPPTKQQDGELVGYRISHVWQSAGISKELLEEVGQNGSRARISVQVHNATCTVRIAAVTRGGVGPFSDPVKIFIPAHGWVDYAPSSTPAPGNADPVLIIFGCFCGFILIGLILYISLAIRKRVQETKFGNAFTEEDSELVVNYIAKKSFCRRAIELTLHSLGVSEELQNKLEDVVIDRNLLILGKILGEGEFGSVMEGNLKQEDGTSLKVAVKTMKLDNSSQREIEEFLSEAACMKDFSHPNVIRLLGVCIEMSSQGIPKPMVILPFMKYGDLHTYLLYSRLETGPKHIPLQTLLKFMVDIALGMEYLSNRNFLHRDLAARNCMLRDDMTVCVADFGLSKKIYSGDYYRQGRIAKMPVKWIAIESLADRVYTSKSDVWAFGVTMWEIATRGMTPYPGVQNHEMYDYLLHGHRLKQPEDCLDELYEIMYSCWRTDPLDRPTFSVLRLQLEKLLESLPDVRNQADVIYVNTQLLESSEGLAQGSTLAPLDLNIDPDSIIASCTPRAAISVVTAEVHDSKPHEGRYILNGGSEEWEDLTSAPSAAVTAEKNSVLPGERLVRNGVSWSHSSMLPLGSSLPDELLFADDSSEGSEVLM
row,Sequence,phosphorylation enrichment
1,GQKVAYGGTGD [ALDH3A1_Y305],0.412
2,LARDIYKNDYY [ROS1_Y2110],0.426
3,FDAHIYEGRVI [PRKCD_Y64],0.47
4,MGHVNYGAYIN [GLB1_Y485_R482H],0.358
5,CTTIHYNCMCN [TP53_Y234_Y236C],0.426
6,DAASNYARGHY [TUBA3E_Y103],0.44
7,ILGRTYYVNHE [NEDD4_Y627],0.368
8,QRRFLYFFSFL [PTEN_Y176_V175L_YF],0.886
